The target in this assay is amyloid peptide (not named; Aβ1-42, AβpE3-42 and 4-42 were tested). In words: SPR (Biacore); reference not named (variants were made to raise the affinity of RHS71/RKA). A general note: SPR reads the build-up and loss of mass on a sensor chip optically.

Experimental findings from patent US20210347867A1 are described below.

B1: humanized NT4X-167 RHS71/RKH (antibody, V domains shown)
VH: QVQLQESGPGLVKPSETLSLTCTVSGFSLSSYGIHWIRQPPGKGLEWIGVMWSGGITNYYPSLKSRVTISRDTSKNQVSLKLSSVTAADTAVYYCARGSRYALDYWGQGTLVTVSS
VL: DIQMTQSPSSLSASVGDRVTITCRASQDISNYLNWYQQKPGKAPKLLIYYTSRLHSGVPSRFSGSGSGTDFTLTISSLQPEDFATYYCQQGHTLPPTFGGGTKLEIK
Regarding B1, the fold improvement on the Biacore was 2 fold.
